Stoichiometry N data for 1 substance are collected here from PMC3935622.

The target of this test is S. Typhimurium CueP C172S mutant (S. Typhimurium). Briefly: SEC. (In gel filtration, larger molecules generally elute earlier.)

“S. Typhimurium CueP C172S mutant (natural protein)” showed a stoichiometry N of 4.

A word on the stoichiometry N: it is the number of molecules, sites or subunits per partner or assembly.
